Measured values as given in patent US5866538A, “Insulin preparations containing NaCl” (Novo Nordisk A/S, priority 1996, dated 1999).

Legend:
[1] = Stability tests of Asp^B28 human insulin preparations in Penfill cartridges, varying NaCl (Example II); assay type: physicochemical; conditions: phosphate 13.5 mM, 19.6 μg Zn/100 U insulin, pH 7.4
Experimental: 370.4 mg AspB28 human insulin was dissolved in water by adding 1.6 ml 0.2N HCl and 49 μl zinc chloride solution (40 mg Zn/ml). 40 g of a solution containing 40 mg/ml glycerol, 3.75 mg/g phenol and 4.30 mg/g m-cresol was added to the insulin solution while mixing. 20 g of a solution containing a) 12.0 mg/g disodium phosphate dihydrate+5 μl/g 2N sodium hydroxide, b) 12.0 mg/g disodium phosphate dihydrate+5 μl/g 2N sodium hydroxide+5 mg/g sodium chloride or c) 12.0 mg/g disodium phosphate dihydrate+5 μl/g 2N sodium hydroxide+10 mg/g sodium chloride was added while mixing. pH was adjusted to pH 7.40±0.05 and water added up to 100 ml. The Asp^B28 Human insulin preparations were introduced into Penfill® cartridges and subjected to stability tests at 25° C. and 37° C. The stability data obtained at the two different temperatures and at a phosphate concentration of 13.5 mM, 19.6 μg Zn/100 U insulin and pH=7.4 are summarized in Table 2.

[2] = Stability tests of Asp^B28 human insulin preparations in Penfill cartridges, varying NaCl (Example III); assay type: physicochemical; conditions: phosphate 13.5 mM, pH 7.40
Experimental: 369.4 mg Asp^B28 human insulin was dissolved in water by adding 1.6 ml 0.2N HCl and 49 μl zinc chloride solution (40 mg Zn/ml). 40 g of a solution containing 40 mg/g glycerol, 3.75 mg/g phenol and 4.30 mg/g m-cresol was added to the solution while mixing. 10 g of a solution containing 24.0 mg/g disodium phosphate dihydrate and 11 μl/g 2N sodium hydroxide was added while mixing. Finally varying amounts (0 g to 4.38 g) of a solution containing 40 mg/g sodium chloride were added while mixing up to a sodium chloride concentration mentioned in Table 4. pH was adjusted to 7.40±0.05 and water added up to 100 ml. The Asp^B28 Human insulin preparations were introduced into Penfill® cartridges and subjected to stability tests at 25° C. and 37° C.

[3] = 8 months at 25° C., NaCl added 0 mM, total conc. of Cl^- 4.4
[4] = 8 months at 25° C., NaCl added 17 mM, total conc. of Cl^- 20.8
[5] = 8 months at 25° C., NaCl added 34 mM, total conc. of Cl^- 37.8
[6] = 8 weeks at 37° C., NaCl added 0 mM, total conc. of Cl^- 4.4
[7] = 8 weeks at 37° C., NaCl added 17 mM, total conc. of Cl^- 20.8
[8] = 8 weeks at 37° C., NaCl added 34 mM, total conc. of Cl^- 37.8
[9] = 6 weeks at 37° C., NaCl added 5 mM, total Cl^- 8.5 mM
[10] = 6 weeks at 37° C., NaCl added 12.5 mM, total Cl^- 16.3 mM
[11] = 6 weeks at 37° C., NaCl added 20 mM, total Cl^- 23.8 mM
[12] = 6 weeks at 37° C., NaCl added 25 mM, total Cl^- 28.8 mM
[13] = 6 weeks at 37° C., NaCl added 30 mM, total Cl^- 33.8 mM
[14] = 12 weeks at 25° C., NaCl added 0 mM, total Cl^- 3.8 mM
[15] = 12 weeks at 25° C., NaCl added 5 mM, total Cl^- 8.5 mM
[16] = 12 weeks at 25° C., NaCl added 12.5 mM, total Cl^- 16.3 mM
[17] = 12 weeks at 25° C., NaCl added 20 mM, total Cl^- 23.8 mM
[18] = 12 weeks at 25° C., NaCl added 25 mM, total Cl^- 28.8 mM
[19] = 12 weeks at 25° C., NaCl added 30 mM, total Cl^- 33.8 mM

Asp^B28 human insulin
Asp^B28 Des-amido insulins formed [1, 3]: 6.4% | Di- & polymers formed [1, 3]: 1.0% | Asp^B28 Des-amido insulins formed [1, 4]: 4.1% | Di- & polymers formed [1, 4]: 0.8% | Asp^B28 Des-amido insulins formed [1, 5]: 3.7% | Di- & polymers formed [1, 5]: 0.8% | Asp^B28 Des-amido insulins formed [1, 6]: 7.0% | Di- & polymers formed [1, 6]: 1.86% | Asp^B28 Des-amido insulins formed [1, 7]: 4.2% | Di- & polymers formed [1, 7]: 1.29% | Asp^B28 Des-amido insulins formed [1, 8]: 3.5% | Di- & polymers formed [1, 8]: 1.07% | Asp^B28 Des-amido insulins formed [2, 9]: 4.1% | Di- & polymers formed [2, 9]: 0.99% | Asp^B28 Des-amido insulins formed [2, 10]: 3.6% | Di- & polymers formed [2, 10]: 0.92% | Asp^B28 Des-amido insulins formed [2, 11]: 3.0% | Di- & polymers formed [2, 11]: 0.87% | Asp^B28 Des-amido insulins formed [2, 12]: 3.0% | Di- & polymers formed [2, 12]: 0.82% | Asp^B28 Des-amido insulins formed [2, 13]: 2.8% | Di- & polymers formed [2, 13]: 0.80% | Asp^B28 Des-amido insulins formed [2, 14]: 2.7% | Di- & polymers formed [2, 14]: 0.36% | Asp^B28 Des-amido insulins formed [2, 15]: 2.3% | Di- & polymers formed [2, 15]: 0.32% | Asp^B28 Des-amido insulins formed [2, 16]: 1.8% | Di- & polymers formed [2, 16]: 0.39% | Asp^B28 Des-amido insulins formed [2, 17]: 1.7% | Di- & polymers formed [2, 17]: 0.39% | Asp^B28 Des-amido insulins formed [2, 18]: 1.8% | Di- & polymers formed [2, 18]: 0.38% | Asp^B28 Des-amido insulins formed [2, 19]: 1.7% | Di- & polymers formed [2, 19]: 0.38%
